{
  "source": "patent US20250326867A1",
  "about": "“De novo designed chlorophyll special pair proteins” (University of Washington, priority 2024, published 2025)",
  "proteins": {"B1": {"name": "D2S (designed binder)", "chain": "SGSGSEEEELERLKEQLKIWQKLIKLILEQDPNDEQIRRILEQAEEIIQKLQEDPNNEELQRLIQLLFNLVAIIFSIKQILELDPNDEQIRRILEQAKEIIQKLQEDPNNEELFLLAHMLFALVAIILLIKLMLEQDPNDELIREILEQAKEIIQKLQEDPNNAELAMLIALLLSLVLWIWFMKFQLEQDPNDEEIRRQLEQLEERIRRTLE", "notes": "Designed homodimer subunit, after TEV cleavage"}, "B2": {"name": "tj79C2-H65A (designed binder)", "chain": "SGSGSREDELLARYLILLAELAAEEADIAAERTGDPRVRELARELKRLAQEAAEEVKRDPSSSDVNHALHLIVLAILIAVEALEAAERTGDPEVRELARELVRLAVEAAEEVQRNPSSSDVLKALILILLAIIQAVKALEAAERTGDPEVRELARELVRLAVEAAEEVQRNPSSKEVTMALLLILIAILEAVLSLLRAERSGDPEKREKARERVREAVERAEEVQRDPSGW", "notes": "as for B1"}, "B3": {"name": "tj79C2-H65B (designed binder)", "chain": "B2 chain with L11F, E25R, H67L, I78A, I126M, L129V, I133L, K137Q, T178Y", "notes": "as for B1"}, "B4": {"name": "tj79C2-H69A (designed binder)", "chain": "SGSGSREDELQARLQLLAAELAAEEADIAAERTGDPRVRELARELKRLAQEAAEEVKRDPSSSDVNAALVLITHAIMLAVEALKAAERTGDPEVRELARELVRLAVEAAEEVQRNPSSSDVNKALFLIMMAIITAVTALEAAERTGDPEVRELARELVRLAVEAAEEVQRNPSSKEVDMALLLILIAILEAVLSLLRAERSGDPEKREKARERVREAVERAEEVQRDPSGW", "notes": "as for B1"}, "B5": {"name": "D2T (designed binder)", "chain": "SGSGSEEEELERLKEQLKIWQKLIKLILEQDPNDEQIRRILEQAEEIIQKLQEDPNNEELQRLIQLLFQLVLGIFIIKQILELDPNDEQIRRILEQAKEIIQKLQEDPNNEELYRLQGLLGMLVGIILLIKLMLEQDPNDELIREILEQAKEIIQKLQEDPNNQELLSLIHLLLALVLWIWFMKFQLEQDPNDEEIRRQLEQLEERIRRTLE", "notes": "as for B1"}, "B6": {"name": "tj79C2-H65D (designed binder)", "chain": "SGSGSREDELQARLLILLIELAAERADIAAERTGDPRVRELARELKRLAQEAAEEVKRDPSSSDVWLALHLIVIAILIAVEALEAAERTGDPEVRELARELVRLAVEAAEEVQRNPSSSDVLKALMLILIAILLLLEALEAAERTGDPEVRELARELVRLAVEAAEEVQRNPSSKEVQMALLLILIAILEAILSLLRAERSGDPEKREKARERVREAVERAEEVQRDPSGW", "notes": "as for B1"}, "B7": {"name": "tj79C2-H65E (designed binder)", "chain": "B6 chain with Q11W, W66L, K123I", "notes": "as for B1"}, "B8": {"name": "D2O (designed binder)", "chain": "SGSGSEEEEIRLAQLAIQIIQYQVEKNGDEQLLRLIQEITEQLQKEGDERLIRILLAMFAIILILEHVEKNGDEELLRLIQEITEKLARQGDERLIRILIAMAGIIWILELVKKNGDEQLLRLIREITRKLAEEGDERLIQILLAMHAIIISSEQLEKNGDEELLQKLRELLEKIAKE", "notes": "as for B1"}, "B9": {"name": "D2R (designed binder)", "chain": "SGSGSEEEELKRLQTLIKYLQLLIQNAKWQNPDDELLRQVEELIEEMKKRLEENPNSQEDQALLKLLITIIALIIMILWLKSENPDDELLRQVEELIKEMIERLKENPNSQEDQALLQLLHAILGLILLIQQLKKQNPDDELLQQVEELIEEMIKRLKENPNSEKDQILLSFLALSLLSIFLIQTQKKQNPDDERLKQWEKQIKESIESSKE", "notes": "as for B1"}, "B10": {"name": "JG (designed binder)", "chain": "SGSGSSDELEARLLIISANLQAEMAQIAAERTGDPRVRELARELKRLAQEAAEEVKRDPSSSEVNQNLTLISMAIALAVLALLLARKAGDEEARDIAREAVEVAVRAAELILEGRDEQRAWTLFLIAHALLLAVLAARLGNSEVAELAVKVLRLAKELEKLLPSEIALFVVSMIGMAALQAAMAASGGQEDYARDALRRLEEAIREAEENRSKESLEKVMEEAIRAYEQALRALAGG", "notes": "as for B1"}, "B11": {"name": "tj79C2-H62A (designed binder)", "chain": "SGSGSRYDELNARLLILLAELAAERADIAAERTGDPRVRELARELKRLAQEAAEEVKRDPSSWSVLHALWLIVVAIEAAVRALEAAERTGDPEVRELARELVRLAVEAAEEVQRNPSSWDVFMALLLIVFAIEAAVRALEAAERTGDPEVRELARELVRLAVEAAEEVQRNPSSKEVDMALLLILIAILEAVLSLLRAERSGDPEKREKARERVREAVERAEEVQRDPSGW", "notes": "as for B1"}, "B12": {"name": "D2M (designed binder)", "chain": "SGSGSEEEQIRLAQLAIQIIQYQVEKNGDEQLLRLIQEITEQLQKEGDERLIAILSTMFGIIWILEQVEKNGDEELLRLIQEITEKLARQGDERLIQIGAAMLAIIIILEQVKKNGDEQLLRLIREITRKLAEEGDQRLIWILHAMMAIIMSSEELEKNGDEELLQKLRELLEKIAKE", "notes": "as for B1"}, "B13": {"name": "D2L (designed binder)", "chain": "SGSGSREKELKQLISNLQILLLILLSEDPNNELVRKLQEKIKEAEEQGDPRRLKLIWWILNLIQMLQQLEQEDPNNELVKRLKELIKRALEEGDPRLLLLIHIILALIWLLQALEKEDPNNELVKRLKKLIEEALKEGDPRKLIQIALLLTWIATIQRLKKQDPNNELIKRAEETLEQSLKT", "notes": "as for B1"}, "B14": {"name": "D2P (designed binder)", "chain": "SGSGSEEEEKRLIEKMSKFIWWFAQQLGDERILRAVEKLQQEIKENSPTPETFMTLINLLLSLLIWWAAQKLGDEKILEAVERLLQQIEENSPTPETHMTLAALAQSLAIWQQAQKLGDEDILEAVERLLEEIQRNSPTPSTLIKLTWLLLLLNNWQELQKQGDEEQLRSSEKAMKELKE", "notes": "as for B1"}, "B15": {"name": "JH (designed binder)", "chain": "SGSSEELAREAREAAIRLAQASTKLMEAMIRGDLKELAEALIELARAVQELARVAKEYGNDELAKLAAFLAAHIAMLAIWVLILAIREGDDEVRELAKTAIKLASTAAKIVLDALPTAEEVRIITLLAKLAEEAADKKNEDSALAVLIAAMAVLIALAALEAAQRAGIEEAEKAARLLLKLAGEAARKKNPEEAKAVYNAALLVSIALLLLQKAKRAGSEETRRLAEEMLRQALERARKKN", "notes": "as for B1"}, "B16": {"name": "JF (designed binder)", "chain": "SGSGSSDELQARFLILSAKLQAEMAQIAAERTGDPRVRELARELKRLAQEAAEEVKRDPSSSEVNSNLALISMAIALAVLALLLARKAGDEEARDIAREAVEVAVRAAELILEGRDDQRAWTLWLIAHALLMAVYAARLGNSEVAELAVKVLRLAKELEKLLPSEEALFVVSMIGLAALQAAMAAAGGQEDYARDALRRLEEAIREAEENRSKESLEKVEEEGIEAMEQALRAIAGG", "notes": "as for B1"}, "B17": {"name": "SP1 (designed binder)", "chain": "GGDSRELIARYQILLAELAAIRADIAAERTGDPYVRKLARELKRLAQEAAEEVKRDPSSSDVNMALLLILLMIELAVRALEAAERTGDPEVRELAAELVWLAVEAAEEVQRNPSSSDVWLALHLIMLAIWAAVAALEAAERTGDPEVRELARELVRLAVEAAEEVQRNPSSKEVYMALLLILIAILEAVLSLLRAERSGDPEKREKARERVREAVERAEEVQR", "notes": "De novo designed subunit of a C2 homodimer"}, "B18": {"name": "D2Q (designed binder)", "chain": "SGSGSEEEEKRLIEKMSKFIWWFAQQLGDERILRAVEKLQQEIKENSPTPETYMTLGNLLLSLLIWWAAQQLGDEKILEAVERLLQQIEENSPTPETHLTLAILMSALAIWQQAQKLGDEDILEAVERLLEEIQRNSPTPSTMTKLLWLALLLNNWEELQKQGDEEQLRSSEKAMKELKE", "notes": "as for B1"}, "B19": {"name": "tj79C2-H65C (designed binder)", "chain": "SGSGSREDELIARYLILLAELAAERADIAAERTGDPRVRELARELKRLAQEAAEEVKRDPSSSDVFMALHLIVLAIQIAVKALEAAERTGDPEVRELARELVRLAVEAAEEVQRNPSSSDVFLALLLIVTAIMLAVEALEAAERTGDPEVRELARELVRLAVEAAEEVQRNPSSKEVLMALLLILIAILEAVLSLLRAERSGDPEKREKARERVREAVERAEEVQRDPSGW", "notes": "as for B1"}, "B20": {"name": "D2K (designed binder)", "chain": "SGSGSREKELKQLISNLQILLLILLSQDPNNELVRKLQEKIKEAEEQGDPRRLKLIWWILALINILQALEQEDPNNELVKRLKELIKRALEEGDPRLLQLILLILHLIWLLQALEKEDPNNELVKRLKKLIEEALKEGDPRKLWQILALLLWIAQIQKLKKQDPNNELIKRAEETLEQSLKT", "notes": "as for B1"}, "B21": {"name": "D2N (designed binder)", "chain": "SGSGSEEEEIRLAQLTIQIIQYQVEKNGDEQLLRLIQEITEQLQKEGDERLIRILNAMFTIIWILEAVEKNGDEELLRLIQEITEKLARQGDERLIKILSAMAGIIWILEIVKKNGDEQLLRLIREITRKLAEEGDERLIQILANMHSIIISSEELEKNGDEELLQKLRELLEKIAKELEHHHHHH", "notes": "as for B1"}, "B22": {"name": "SP2 (designed binder)", "chain": "SGSGSSDEEFKFLATEAKMLITAAERLAGTDPELQEMVALIKKELEQAERTFRNGDKSEAQRQLEFVLTAARAVMNVAAAANAAGTDPELIEMVLRILKQLKEAIRTFQNGDQEEAETQLRFVLRAAIAVAVVAAALVLAGTDPELQEMVKQILEELKQAIETFARGDKEKALTQLLFVAWAAHAVAMIAAAANLAGTDPRLQQQVKEILEKLKEAIETFQKGDEEQAFRQLAEVLAEAALVALRAALTN", "notes": "as for B17"}},
  "note": "Numbering of substitutions follows the chain as printed.",
  "data": [
    {"target": "the molecule itself", "assay": "size-exclusion chromatography, self-association (homodimer)", "procedure": "FIG. 7. Size exclusion chromatography (SEC) traces of purified SP apo-proteins. Proteins were injected as 0.5 mL aliquots onto a Superdex™ 200 Increase 10/300 GL column (Cytiva Life Sciences). The narrow, isolated peaks indicate that the samples contain monodisperse protein. Running buffer was 150 mM NaCl, 10 mM Tris at pH 8. Proteins were purified by Ni-NTA and one round of SEC prior to collecting the data shown.\nProteins were purified by Ni-NTA and size-exclusion chromatography (SEC) (FIG. 7). […] A slightly lower predicted radius of gyration (Rg) value compared to experimental SAXS data is likely due to a dense hydration shell around the highly charged SP proteins (Svergun et al. 1998; Kim et al. 2016). The far ultraviolet (UV) circular dichroism (CD) spectra of three SP proteins that expressed in high yield (≥140 mg/L) show the proteins are highly α-helical with and without the synthetic Chl a derivative, Zn pheophorbide a methyl ester (ZnPPaM). Thermal denaturation curves monitored by the CD signal at 222 nm indicate that all three proteins are highly thermostable in the apo- and holo-states (FIG. 2).", "values": [
      {"protein": "B1", "binding result": "binds"},
      {"protein": "B2", "binding result": "binds"},
      {"protein": "B3", "binding result": "binds"},
      {"protein": "B4", "binding result": "binds"},
      {"protein": "B5", "binding result": "binds"},
      {"protein": "B6", "binding result": "binds"},
      {"protein": "B7", "binding result": "binds"},
      {"protein": "B8", "binding result": "binds"},
      {"protein": "B9", "binding result": "binds"},
      {"protein": "B10", "binding result": "binds"},
      {"protein": "B11", "binding result": "binds"},
      {"protein": "B12", "binding result": "binds"},
      {"protein": "B13", "binding result": "binds"},
      {"protein": "B14", "binding result": "binds"},
      {"protein": "B15", "binding result": "binds"},
      {"protein": "B16", "binding result": "binds"},
      {"protein": "B17", "binding result": "binds"},
      {"protein": "B18", "binding result": "binds"},
      {"protein": "B19", "binding result": "binds"},
      {"protein": "B20", "binding result": "binds"},
      {"protein": "B21", "binding result": "binds"},
      {"protein": "B22", "binding result": "binds"}
    ]}
  ]
}
